# Assay results from patent US20190367620A1 (Merck KGaA, published 2019).
# T1: ratFGFR1a-IIIc (rat, UniProt Q04589 22-376)
# T1 construct: Bought, His6 tag; also called rat FGFR1a-IIIc His6-tagged
# T1 sequence (looked up): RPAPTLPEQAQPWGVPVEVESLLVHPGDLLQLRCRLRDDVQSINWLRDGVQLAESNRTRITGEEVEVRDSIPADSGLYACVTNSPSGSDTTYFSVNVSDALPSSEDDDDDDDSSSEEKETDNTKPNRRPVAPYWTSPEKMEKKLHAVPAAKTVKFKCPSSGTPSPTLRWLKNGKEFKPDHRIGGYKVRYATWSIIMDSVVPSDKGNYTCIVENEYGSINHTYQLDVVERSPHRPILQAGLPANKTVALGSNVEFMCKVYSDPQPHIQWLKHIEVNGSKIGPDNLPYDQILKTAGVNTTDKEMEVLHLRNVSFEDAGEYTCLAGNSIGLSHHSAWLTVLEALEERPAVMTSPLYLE
# T2: human FGFR1b-IIIb extracellular domain with a HIS tag (human)
# T2 construct: also called huFGFR1b-IIIb; hFGFR1b-IIIb
# T2 chain: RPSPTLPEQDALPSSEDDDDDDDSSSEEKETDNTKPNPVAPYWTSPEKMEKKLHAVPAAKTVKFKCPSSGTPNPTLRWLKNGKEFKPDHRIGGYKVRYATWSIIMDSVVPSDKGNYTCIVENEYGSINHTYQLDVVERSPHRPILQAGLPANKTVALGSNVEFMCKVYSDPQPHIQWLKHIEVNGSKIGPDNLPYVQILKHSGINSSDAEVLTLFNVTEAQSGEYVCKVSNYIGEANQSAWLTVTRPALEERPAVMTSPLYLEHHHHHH
# T3: muFGFR1a-IIIc (mouse, UniProt P16092 22-376)
# T3 construct: Bought, His6 tag; also called mouse FGFR1a-IIIc His6-tagged; murine FGFR1a-IIIc
# T3 sequence (looked up): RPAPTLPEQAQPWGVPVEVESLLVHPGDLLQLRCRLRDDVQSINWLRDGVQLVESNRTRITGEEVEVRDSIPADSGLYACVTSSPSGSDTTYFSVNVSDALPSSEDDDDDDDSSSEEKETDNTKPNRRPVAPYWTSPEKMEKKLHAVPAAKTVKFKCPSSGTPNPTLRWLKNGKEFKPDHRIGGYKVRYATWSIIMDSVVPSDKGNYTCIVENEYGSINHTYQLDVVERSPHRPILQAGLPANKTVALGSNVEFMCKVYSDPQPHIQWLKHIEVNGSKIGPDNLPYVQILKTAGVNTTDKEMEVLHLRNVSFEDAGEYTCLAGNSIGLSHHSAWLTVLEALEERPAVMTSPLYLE
# T4: human FGFR1b-IIIc extracellular domain with a HIS tag (human, UniProt P11362 22-376)
# T4 construct: also called huFGFR1b-IIIc; hFGFR1b-IIIc
# T4 sequence: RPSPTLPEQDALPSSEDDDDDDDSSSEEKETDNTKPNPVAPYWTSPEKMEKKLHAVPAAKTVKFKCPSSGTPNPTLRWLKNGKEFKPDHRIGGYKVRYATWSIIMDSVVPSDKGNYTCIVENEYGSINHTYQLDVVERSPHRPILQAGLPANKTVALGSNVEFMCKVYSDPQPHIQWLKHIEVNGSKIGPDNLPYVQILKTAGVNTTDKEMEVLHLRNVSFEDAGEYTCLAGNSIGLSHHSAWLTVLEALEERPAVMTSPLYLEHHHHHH
# T5: FGFR1 D2 point mutant P57A (human, UniProt P11362 22-254)
# T5 chain: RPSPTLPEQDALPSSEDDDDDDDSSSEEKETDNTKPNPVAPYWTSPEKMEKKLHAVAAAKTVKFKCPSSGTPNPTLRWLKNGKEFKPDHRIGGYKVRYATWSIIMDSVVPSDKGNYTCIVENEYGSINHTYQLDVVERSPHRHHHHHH
# T6: FGFR1 D2 point mutant L53A (human, UniProt P11362 22-254)
# T6 chain: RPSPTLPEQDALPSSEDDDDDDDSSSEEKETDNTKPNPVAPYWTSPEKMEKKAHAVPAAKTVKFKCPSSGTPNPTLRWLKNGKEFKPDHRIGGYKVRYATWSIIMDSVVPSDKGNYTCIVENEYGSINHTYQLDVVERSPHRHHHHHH
# Columns and labels:
# ratFGFR1a-IIIc = target: T1, ratFGFR1a-IIIc; experiment: SPR (Biacore 4000), antibody captured, His-tagged FGFR1 injected; no unit in the table, nM inferred from paragraph 90
# Protocol: (§1) Binding affinities of anti-FGFR1 antibodies to FGFR1 were measured by Surface Plasmon Resonance (SPR) using a GE Healthcare BIAcore 4000 instrument as follows. Goat anti-human Fc antibody (Jackson ImmunoResearch Laboratories #109-005-098) was first immobilized on BIAcore carboxymethylated dextran CM5 chip using direct coupling to free amino groups following the procedure described by the manufacturer. Antibodies were then captured on the CM5 biosensor chip to achieve approximately 200 response units (RU). Binding measurements were performed using the running HBS-EP+ buffer. A 2-fold dilution series of His-tagged FGFR1 proteins were injected at a flow rate of 30 μl/min at 25° C. Association rates (kₒₙ, per mol/s) and dissociation rates (koff, per s) were calculated using a simple 1:1 Langmuir binding model (Biacore 4000 Evaluation Software). The equilibrium dissociation constant (KD, mol) was calculated as the ratio of koff/kₒₙ.
# [1] = target: T2, human FGFR1b-IIIb extracellular domain …; experiment: as above
# Protocol: as §1
# muFGFR1a-IIIc = target: T3, muFGFR1a-IIIc; experiment: as above
# Protocol: as §1
# [2] = target: T4, human FGFR1b-IIIc extracellular domain …; experiment: as above
# Protocol: as §1
# [3] = target: T4, human FGFR1b-IIIc extracellular domain …; experiment: ELISA, antibody titrated on huFGFR1b-IIIc, O.D. 450 nm [panel huFGFR1b-IIIc]
# [4] = target: T5, FGFR1 D2 point mutant P57A; experiment: SPR; free energy change relative to wild-type D2
# Outline: (§2)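 Point mutants of FGFR1 D2, expressed in HEK cells, were tested by SPR against mAb #A08 captured via anti-human Fc to ~200 RU, in HBS-EP+ at 25° C. KD came from a 1:1 Langmuir fit (koff/kon), and ΔΔG was derived from the ratio of wild-type to mutant KD.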
# [5] = target: T6, FGFR1 D2 point mutant L53A; experiment: SPR; free energy change relative to wild-type D2
# Outline: as §2
binder,measurement,setting,value
"mAb #A08 (antibody, V domains shown, Only variable domains are tied to the name mAb #A08 (hit); also called #A08 hit; mAb #08) VH: EVQLQESGPGLVKPSGTLSLTCAVSGGSISSNNWWSWVRQPPGKGLEWIGEIYHSGSTSYNPSLKSRVTISVDKSKNQFSLKLNSVTAADTAVYYCARGTDWFDPWGQGTLVTVSS VL: QAVLTQPPSVSVAPGQTARITCGGNNIGSESVHWYQQKPGQAPVLVVYDDSDRPSGIPERFSGSNSGNTATLTISRVEAGDEADYYCQVWDSTSDHRVFGGGTKLTVL",Kd,ratFGFR1a-IIIc,2.2 nM
same,Kd,[1],0.01 nM
same,Kd,muFGFR1a-IIIc,2.3 nM
same,Kd,[2],0.017 nM
same,EC50 (read off the curve),[3],~0.03 nM
same,ΔΔGmut,[4],0.44 kcal/mol
same,ΔΔGmut,[5],0.25 kcal/mol
